Measured values reported in paper PMC3751582.

Molecular target: Drosophila melanogaster cystathionine β-synthase (Drosophila melanogaster)
Assay: native gel or EMSA

- stoichiometry N: 2
Substance: Drosophila melanogaster cystathionine β-synthase (enzyme)
